Reference: US20200040057A1 (IMMATICS BIOTECHNOLOGIES, published 2020)

Target: HLA-B*07 (human)
Assay: UV peptide exchange ELISA; +++ = yield >50

B1: SPSKSLEM (peptide)
peptide: SPSKSLEM
peptide exchange yield: 50 to 75%

B2: KIEQIRAVL (peptide)
peptide: KIEQIRAVL
peptide exchange yield: 50 to 75%

B3: YPLQGPGLLSV (peptide)
peptide: YPLQGPGLLSV
peptide exchange yield: 50 to 75%

B4: SAAPPGASL (peptide)
peptide: SAAPPGASL
peptide exchange yield: 50 to 75%

B5: RPQGAVGGL (peptide)
peptide: RPQGAVGGL
peptide exchange yield: 50 to 75%

B6: APEPRAALL (peptide)
peptide: APEPRAALL
peptide exchange yield: 50 to 75%

B7: WPRLPGAGL (peptide)
peptide: WPRLPGAGL
peptide exchange yield: 50 to 75%

B8: LPYEKVSRL (peptide)
peptide: LPYEKVSRL
peptide exchange yield: 50 to 75%

B9: LIAARGSLVL (peptide)
peptide: LIAARGSLVL
peptide exchange yield: 50 to 75%

B10: QPANFIVLL (peptide)
peptide: QPANFIVLL
peptide exchange yield: 50 to 75%

B11: RVMLPKAAL (peptide)
peptide: RVMLPKAAL
peptide exchange yield: 50 to 75%

B12: LPLHRGDLVI (peptide)
peptide: LPLHRGDLVI
peptide exchange yield: 50 to 75%

B13: SSPRGTTSTL (peptide)
peptide: SSPRGTTSTL
peptide exchange yield: 50 to 75%

B14: HPAPPVTSA (peptide)
peptide: HPAPPVTSA
peptide exchange yield: 50 to 75%

B15: QPENSLEGISL (peptide)
peptide: QPENSLEGISL
peptide exchange yield: 50 to 75%

B16: IPDTIASVL (peptide)
peptide: IPDTIASVL
peptide exchange yield: 50 to 75%

B17: QPQQPGFFL (peptide)
peptide: QPQQPGFFL
peptide exchange yield: 50 to 75%

B18: TPELKSSIL (peptide)
peptide: TPELKSSIL
peptide exchange yield: 50 to 75%

B19: RPRPPKVLGL (peptide)
peptide: RPRPPKVLGL
peptide exchange yield: 50 to 75%

B20: KPYDGIPAS (peptide)
peptide: KPYDGIPAS
peptide exchange yield: 50 to 75%

B21: KPIRTGISPLAL (peptide)
peptide: KPIRTGISPLAL
peptide exchange yield: 50 to 75%

B22: GPQRTTSV (peptide)
peptide: GPQRTTSV
peptide exchange yield: 50 to 75%

B23: FPAFLEAM (peptide)
peptide: FPAFLEAM
peptide exchange yield: 50 to 75%

B24: RPAPGPAPFV (peptide)
peptide: RPAPGPAPFV
peptide exchange yield: 50 to 75%

B25: SPIIHSIL (peptide)
peptide: SPIIHSIL
peptide exchange yield: 50 to 75%

B26: IPETASVVAI (peptide)
peptide: IPETASVVAI
peptide exchange yield: 50 to 75%

B27: VPHTGRYTCL (peptide)
peptide: VPHTGRYTCL
peptide exchange yield: 50 to 75%

B28: TAYPSLRLL (peptide)
peptide: TAYPSLRLL
peptide exchange yield: 50 to 75%

B29: SPGDKRLAAYL (peptide)
peptide: SPGDKRLAAYL
peptide exchange yield: 50 to 75%

B30: MPATPSLKV (peptide)
peptide: MPATPSLKV
peptide exchange yield: 50 to 75%

B31: RAVPVGSGL (peptide)
peptide: RAVPVGSGL
peptide exchange yield: 50 to 75%

B32: RVLLRWISL (peptide)
peptide: RVLLRWISL
peptide exchange yield: 50 to 75%

B33: SPDSAILKL (peptide)
peptide: SPDSAILKL
peptide exchange yield: 50 to 75%

B34: APRSPGQVTPRGL (peptide)
peptide: APRSPGQVTPRGL
peptide exchange yield: 50 to 75%

B35: LPMTHRLQL (peptide)
peptide: LPMTHRLQL
peptide exchange yield: 50 to 75%

B36: APGGSSRSSL (peptide)
peptide: APGGSSRSSL
peptide exchange yield: 50 to 75%

B37: RITWKGLLL (peptide)
peptide: RITWKGLLL
peptide exchange yield: 50 to 75%

B38: SPVGVGQRL (peptide)
peptide: SPVGVGQRL
peptide exchange yield: 50 to 75%

B39: RPGTGQGGL (peptide)
peptide: RPGTGQGGL
peptide exchange yield: 50 to 75%

B40: SPSLQSSRESL (peptide)
peptide: SPSLQSSRESL
peptide exchange yield: 50 to 75%

B41: SPRSGVLL (peptide)
peptide: SPRSGVLL
peptide exchange yield: 50 to 75%

B42: HPRAPGEQQRL (peptide)
peptide: HPRAPGEQQRL
peptide exchange yield: 50 to 75%

B43: LPWEQNEQV (peptide)
peptide: LPWEQNEQV
peptide exchange yield: 50 to 75%

B44: HPYSDLADVF (peptide)
peptide: HPYSDLADVF
peptide exchange yield: 50 to 75%

B45: IPIDQILNSF (peptide)
peptide: IPIDQILNSF
peptide exchange yield: 50 to 75%

B46: SPFSKRIKL (peptide)
peptide: SPFSKRIKL
peptide exchange yield: 50 to 75%

B47: RPRPPKVL (peptide)
peptide: RPRPPKVL
peptide exchange yield: 50 to 75%

B48: AASPVGSAL (peptide)
peptide: AASPVGSAL
peptide exchange yield: 50 to 75%

B49: SPYADIIPSA (peptide)
peptide: SPYADIIPSA
peptide exchange yield: 50 to 75%

B50: APADEPRTVL (peptide)
peptide: APADEPRTVL
peptide exchange yield: 50 to 75%

B51: RPFLRLPSL (peptide)
peptide: RPFLRLPSL
peptide exchange yield: 50 to 75%

B52: SVLPRALSL (peptide)
peptide: SVLPRALSL
peptide exchange yield: 50 to 75%

B53: SPSTSRTPL (peptide)
peptide: SPSTSRTPL
peptide exchange yield: 50 to 75%

B54: LPNTGRIGQL (peptide)
peptide: LPNTGRIGQL
peptide exchange yield: 50 to 75%

B55: KPRATWTL (peptide)
peptide: KPRATWTL
peptide exchange yield: 50 to 75%

B56: IPAPQGAVL (peptide)
peptide: IPAPQGAVL
peptide exchange yield: 50 to 75%

B57: VLPRAGGAFLM (peptide)
peptide: VLPRAGGAFLM
peptide exchange yield: 50 to 75%

B58: APRPGNWIL (peptide)
peptide: APRPGNWIL
peptide exchange yield: 50 to 75%

B59: RPTAASQSRAL (peptide)
peptide: RPTAASQSRAL
peptide exchange yield: 50 to 75%

B60: MPVPGILL (peptide)
peptide: MPVPGILL
peptide exchange yield: 50 to 75%

B61: MAYDRFIAI (peptide)
peptide: MAYDRFIAI
peptide exchange yield: 50 to 75%

B62: RPFPLALL (peptide)
peptide: RPFPLALL
peptide exchange yield: 50 to 75%

B63: FPNAGPRHLL (peptide)
peptide: FPNAGPRHLL
peptide exchange yield: 50 to 75%

B64: APSMLRKNQL (peptide)
peptide: APSMLRKNQL
peptide exchange yield: 50 to 75%

B65: NPREPEKSL (peptide)
peptide: NPREPEKSL
peptide exchange yield: 50 to 75%

B66: KPMLPPAAF (peptide)
peptide: KPMLPPAAF
peptide exchange yield: 50 to 75%

B67: SPRGTTSTL (peptide)
peptide: SPRGTTSTL
peptide exchange yield: 50 to 75%

B68: FAFYGGKSL (peptide)
peptide: FAFYGGKSL
peptide exchange yield: 50 to 75%

B69: SPTPVFTTL (peptide)
peptide: SPTPVFTTL
peptide exchange yield: 50 to 75%

B70: VPPQNPRPSL (peptide)
peptide: VPPQNPRPSL
peptide exchange yield: 50 to 75%

B71: LPQRPNARL (peptide)
peptide: LPQRPNARL
peptide exchange yield: 50 to 75%

B72: LHAMNSLSAM (peptide)
peptide: LHAMNSLSAM
peptide exchange yield: 50 to 75%

B73: AVHEIGHSL (peptide)
peptide: AVHEIGHSL
peptide exchange yield: 50 to 75%

B74: FPRKPYEGRV (peptide)
peptide: FPRKPYEGRV
peptide exchange yield: 50 to 75%

B75: RPHQKGWLSI (peptide)
peptide: RPHQKGWLSI
peptide exchange yield: 50 to 75%
